The values below come from patent US20220089722A1 (NANTONG YICHEN BIOPHARMA, published 2022).

In general, Kd refers to the equilibrium constant for the complex coming apart. A low value points to a tighter complex.

The target in experiment [1] is T1, EGFR on F98-EGFR cells (UniProt P00533 25-1210, limits assumed). Kind of experiment: cell-based or functional assay.
Experiment [2] addresses T1, EGFR on F98-EGFR cells. Kind of experiment: flow cytometry on F98-EGFR cells. As to the method: F98-EGFR cells (a DMEM containing 10% FBS, 200 μg/ml G418) were cultured. 2×10⁵ cells were washed by precooled PBS for 3 times, and blocked by 2% FBS (soluble to PBS). IgFD-8, IgFD-9, IgFD-10, IgFD-11, IgFD-18, IgFD-19, IgFD-25, IgFD-26 or IgFD-31 (aEGFR expressed in a laboratory as a control) was added and incubated for 2 h at 4° C. (cells were gently mixed during incubation), unbounded antibodies were washed by 2% FBS (soluble to PBS), and then the remaining cells were incubated by FITC anti-human IgGFc(KPL, Inc., MD) for 1 h at 4° C., and washed by 2% FBS (soluble to PBS) for flow cytometry analysis. As shown in FIG. 7 and Table 4, the anti-CD3/anti-EGFR heterodimers in different forms of fusion could bind to EGFR on F98-EGFR cells, and there was no significant difference in the binding capacity of different heterodimers to F98-EGFR.
(In general: Flow cytometry measures light scatter and fluorescence of single cells or particles in a stream.)

The target in experiment [3] is T2, CD3 on T cells (Jurkat T cells; PBMC-T cells).
T2 construct: whole, on cells; the target is inferred from the anti-CD3 arm of the constructs
Kind of experiment: flow cytometry on activated T cells from PBMCs (PBMC-T). As to the method: Peripheral blood of healthy volunteers was collected, and Ficoll-Hypaque(GE Healthcare) was used to separate peripheral blood monouclear cells (PBMCs) via gradient centrifugation. The purified PBMCs were resuspended in RPMI 1640/10% FBS complete medium. PBMCs were incubated with immobilized anti-CD3 (Clone OKT3, eBiosciences), and 2 μg mL anti-CD28 (Clone CloneCD28.2, eBiosciences) at 37° C. for 48 h. The activated T cells were then expanded for 10d with 20 U/ml IL2(R&D Systems). 2×10⁵ cells were washed by precooled PBS for 3 times, and blocked by 2% FBS (in PBS), and then incubated with IgFD-8, IgFD-18 or IgFD-19 at different concentrations (25 nM, 7.5 nM, 2.5 nM, 0.75 nM or 0.25 nM) for 1 h at 4° C. (cells were gently mixed during incubation). Unbounded antibodies were washed by 2% FBS (in PBS), and the cells were incubated with FITC anti-human IgGFc (KPL, Inc., MD) for 1 h at 4° C. (cells were gently mixed during incubation). The cells were subjected for flow cytometry analysis after the unbounded antibodies were washed by 2% FBS (in PBS).

T2 sequence (P07766 23-207): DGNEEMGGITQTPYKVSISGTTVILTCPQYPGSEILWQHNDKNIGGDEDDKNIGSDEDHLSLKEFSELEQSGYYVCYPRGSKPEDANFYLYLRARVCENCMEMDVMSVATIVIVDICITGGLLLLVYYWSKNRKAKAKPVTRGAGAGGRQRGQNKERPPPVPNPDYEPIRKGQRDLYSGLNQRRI

B1: IgFD-8 (bispecific antibody, human IgG1, kappa)
chain 1: EVQLVESGGGLVQPGGSLRLSCAASGFTFNTYAMNWVRQAPGKGLEWVARIRSKYNNYATYYADSVKDRFTISRDDSKNTLYLQMNSLRAEDTAVYYCVRHGNFGNSYVSWFAYWGQGTLVTVSSASTKGPSVFPLAPSSKSTSGGTAALGCLVKDYFPEPVTVSWNSGALTSGVHTFPAVLQSSGLYSLSSVVTVPSSSLGTQTYICNVNHKPSNTKVDKKVEPKSCDKTHTCPPCPAPPVAGPSVFLFPPKPKDTLMISRTPEVTCVVVDVSHEDPEVKFNWYVDGVEVHNAKTKPREEQYNSTYRVVSVLTVLHQDWLNGKEYKCKVSNKGLPSSIEKTISKAKGQPREPQVYTLPPSRDELTKNQVSLTCLVKGFYPSDIAVEWESNGQPENNYKTTPPVLDSDGSFFLYSKLTVDKSRWQQGNVFSCSVMHEALHNHYTQKSLSLSPGK
chain 2: QAVVTQEPSLTVSPGGTVTLTCRSSTGAVTTSNYANWVQQKPDHLFRGLIGGTNKRAPGTPARFSGSLLGDKAALTISGAQPEDEAEYYCALWYSNLWVFGGGTKLTVLKRTVAAPSVFIFPPSDEQLKSGTASVVCLLNNFYPREAKVQWKVDNALQSGNSQESVTEQDSKDSTYSLSSTLTLSKADYEKHKVYACEVTHQGLSSPVTKSFNRGECDKTHTCPPCPAPPVAGPSVFLFPPKPKDTLMISRTPEVTCVVVDVSHEDPEVKFNWYVDGVEVHNAKTKPREEQYNSTYRVVSVLTVLHQDWLNGKEYKCKVSNKGLPSSIEKTISKAKGQPREPQVYTLPPSRDELTKNQVSLTCLVKGFYPSDIAVEWESNGQPENNYKTTPPVLDSDGSFFLYSKLTVDKSRWQQGNVFSCSVMHEALHNHYTQKSLSLSPGKGGSGGSGGGGSGGGGSDIQMTQSPSSLSASVGDRVTITCQASQDISNYLNWYQQKPGKAPKLLIYDASNLETGVPSRFSGSGSGTDFTFTISSLQPEDIATYFCQHFDHLPLAFGGGTKVEIKGGGGSGGGGSGGGGSQVQLQESGPGLVKPSETLSLTCTVSGGSVSSGDYYWTWIRQSPGKGLEWIGHIYYSGNTNYNPSLKSRLTISIDTSKTQFSLKLSSVTAADTAIYYCVRDRVTGAFDIWGQGTMVTVSS
As to B1, in the experiment with EGFR on F98-EGFR cells [1], the “Promotion for the specific killing effect of PBMCs on target cells by heterodimers (EC50, pM); F98-EGFR cells, LDH assay” value was 766 pM. For the same molecule, the Kd was found to be 3.12 nM with EGFR on F98-EGFR cells [2] and 3.74 nM in experiment [3].
